Laboratory results published in patent US11161912B2, “Heparanase-neutralizing monoclonal antibodies” (Technion Research & Development Foundation Limited, priority 2015, dated 2021).

How the values were obtained:
[1] = system: CAG myeloma cells; assay: CAG-luciferase myeloma, tail vein inoculation, tumor burden by IVIS imaging; type: in vivo, human; conditions: mAb 600 μg/mouse every other day
Description: Tumorigenicity. Luciferase-labelled CAG myeloma (5×10^6) or Raji lymphoma (1×10^6) cells were injected into the tail vein of NOD/SCID mice (n=5). Mice were treated with PG545 (20 mg/kg, once weekly), mAb 9E8 (600 μg/mouse) every other day starting one day following cell inoculation and tumor growth was examined by IVIS imaging. At termination, mice were sacrificed, the backbones were excised, fixed in formalin and following de-calcification with 10% EDTA solution were embedded in paraffin and subjected to histological and immunohistochemical analyses essentially as described (Weissmann et al, 2016, Proc Natl Acad Sci USA 113:704-709). […]
IVIS imaging. […] Light emitted from the bioluminescent cells was detected by the IVIS camera system with images quantified for tumor burden using a log-scale color range set at 5×10^4 to 1×10^7 and measurement of total photon counts per second (PPS) using Living Image software (Xenogen) (Weissmann et al, 2016, Proc Natl Acad Sci USA 113:704-709).
FIG. 6A. […] Tumor growth was evaluated by IVIS imaging (left panels). Quantification of luciferase signals is shown graphically in the right panel. […] Bone marrow was harvested from C57Bl/6 mice, cells were collected by centrifugation and heparanase activity was determined as described under ‘Materials and Methods’ (left panel). […]

[2] = system: Mouse B16 melanoma cells; assay: B16 melanoma experimental lung metastasis; type: in vivo; conditions: C57Bl/6 mice, given with the cells: Ab #1453 250 μg, mAb 9E8 500 μg, SST0001 400 μg; lungs after 18 days
Description: Experimental metastasis. B16 BL6 mouse melanoma (2×10^5) or LM2-4 human breast cancer cells (2×10^6) were injected into the tail vein of C57/BL mice or SCID/Beige mice (respectively) together with the indicated compound, essentially as described (Hostettler N, et al. 2007, FASEB J 21(13):3562-3572). Lungs were harvested 18 days thereafter and metastases occurrence was determined following fixation by gross inspection and histology (Weissmann et al, 2016, Proc Natl Acad Sci USA 113:704-709).
FIG. 5A. Cell invasion. Cal-27 tongue carcinoma (left panels) and U87 glioma cells (right panels) (2×10^5) were plated onto Matrigel-coated filters in the presence of mouse IgM/IgG (upper panels), mAb 9E8 (2 μg; second left and middle panels). Invading cells adhering to the lower side of the membrane were visualized after 6 h. The number of invading cells per high power field is shown graphically at the lower panels. FIG. 5B, FIG. 5C. Tumor metastasis. FIG. 5B Mouse B16 melanoma cells (2×10^5) were inoculated into the tail vein of C57Bl/6 mice (n=7) together with rabbit IgG (300 μg; Con), Ab #1453 (250 μg), mAb 9E8 (500 μg) or SST0001 (400 μg). Lungs were harvested after 18 days, photographed (lower panel) and the number of metastatic lesions was counted (upper panel; p=0.001, 0.0006, 0.0001 for Con vs. Ab 1453, Con vs. mAb 9E8 and Con vs. SST0001, respectively). […]

[3] = system: Raji-luciferase cells; assay: Raji-luciferase lymphoma, tail vein inoculation, bone marrow growth by IVIS imaging; type: in vivo, human; conditions: mAb 600 μg/mouse every other day, IVIS
Description: Tumorigenicity. Luciferase-labelled CAG myeloma (5×10^6) or Raji lymphoma (1×10^6) cells were injected into the tail vein of NOD/SCID mice (n=5). Mice were treated with PG545 (20 mg/kg, once weekly), mAb 9E8 (600 μg/mouse) every other day starting one day following cell inoculation and tumor growth was examined by IVIS imaging. At termination, mice were sacrificed, the backbones were excised, fixed in formalin and following de-calcification with 10% EDTA solution were embedded in paraffin and subjected to histological and immunohistochemical analyses essentially as described (Weissmann et al, 2016, Proc Natl Acad Sci USA 113:704-709). Dose of 25-30 mg/kg (i.e., 500-600 μg mAb/mouse) is typical in cancer restraining experiments (Van Looy T, et al. 2015, Transl Oncol 8(2):112-118).
IVIS imaging. Bioluminescent imaging of the luciferase-expressing tumors was performed with a highly sensitive, cooled charge coupled device (CCD) camera mounted in a light-tight specimen box (IVIS; Xenogen Corp., Waltham, Mass.). Briefly, mice were injected intraperitoneally with D-luciferin substrate at 150 mg/kg, anesthetized and placed onto a stage inside the light-tight camera box, with continuous exposure to isoflurane (EZAnesthesia, Palmer, Pa.). Light emitted from the bioluminescent cells was detected by the IVIS camera system with images quantified for tumor burden using a log-scale color range set at 5×10^4 to 1×10^7 and measurement of total photon counts per second (PPS) using Living Image software (Xenogen) (Weissmann et al, 2016, Proc Natl Acad Sci USA 113:704-709).
FIG. 4A. Raji-luciferase cells (1×10^6) were injected into the tail vein of NOD/SCID mice (n=5). Mice were treated with PG545 (20 mg/kg once a week) starting one day after cell inoculation and IVIS imaging was applied to quantify tumor load. […] NOD/SCID mice (n=5) were inoculated (iv) with Raji-luciferase cells and mice were treated with mAb 9E8 (600 μg/mouse every other day) (FIG. 4C) and tumor growth was evaluated by IVIS imaging (left panels). Quantification of luciferase signals is shown graphically in the right lower panel.

[4] = system: U87 glioma cells; assay: Matrigel cell invasion, U87 glioma cells; type: cell-based, human; conditions: mAb 2 μg, 6 h
Description: Cell invasion. Matrigel invasion assay was performed using modified Boyden chambers with polycarbonate Nucleopore membrane (Corning, Corning, N.Y.), essentially as described (17). Briefly, filters (6.5 mm in diameter, 8 μm pore-size) were coated with Matrigel (30 μl); Cells (2×10^5) in 100 μl of serum-free medium were seeded in triplicate on the upper part of each chamber, and the lower compartment was filled with 600 μl medium supplemented with 10% FCS. After incubation for 5 h at 37° C. in a 5% CO2 incubator, non-invading cells on the upper surface of the filter were wiped with a cotton swab, and migrated cells on the lower surface of the filter were fixed, stained with 0.5% crystal violet (Sigma) and counted by examination of at least seven microscopic fields.
FIG. 5A. Cell invasion. Cal-27 tongue carcinoma (left panels) and U87 glioma cells (right panels) (2×10^5) were plated onto Matrigel-coated filters in the presence of mouse IgM/IgG (upper panels), mAb 9E8 (2 μg; second left and middle panels). Invading cells adhering to the lower side of the membrane were visualized after 6 h. […] Lungs were harvested after 18 days, photographed (lower panel) and the number of metastatic lesions was counted (upper panel; p=0.001, 0.0006, 0.0001 for Con vs. Ab 1453, Con vs. mAb 9E8 and Con vs. SST0001, respectively). […]

B1: mAb 9E8: monoclonal IgM raised against KKDC peptide (Lys158-Asn171) of heparanase; VH SEQ ID NO: 7, VL SEQ ID NO: 8 (antibody)
VH: EVKLLESGGGLVQPGGSLKLSCAASGFDFSRYWMSWVRQAPGKGLEWIGEINPDSSTINYTPSLKDKFIISRDNAKNTLYLQMSKVRSEDTALYYCARRGYEGNYAMDYWGQGTSVTVSSESQSFPNVFPLVSCESPLSDKNLVAMGCLAR
VL: DIVMTQAAPSVPVTPGESVSISCRSSKSLLHSNGNTYLYWFLQRPGQSPQLLIYRMSNLASGVPDRFSGSGSGTAFTLRISRVEAEDVGVYYCMQHLEYPFTFGSGTKLEIKRADAAPTVSIFPPSSEQLTSGGASVVCFL
modifications: IgM constant regions
- decrease in tumor burden (luciferase signal) [1]: 2-3 fold
- experimental lung metastasis (number of metastatic lesions) [2]: inhibitory effect
- decrease of Raji cell growth (luciferase signal) [3]: 2-3 fold
- cell invasion [4]: inhibitory effect
